B1: anti-CD52 (alemtuzumab variable regions) human IgG1 wild type reference (antibody)
heavy: not shown
light: not shown
notes: also called 4-1; wild-type CD52 antibody
B2: anti-CD20 (rituximab) human IgG1 wild-type reference (antibody)
heavy: not shown
light: QIVLSQSPAILSASPGEKVTMTCRASSSVSYIHWFQQKPGSSPKPWIYATSNLASGVPVRFSGSGSGTSYSLTISRVEAEDAATYYCQQWTSNPPTFGGGTKLEIKRTVAAPSVFIFPPSDEQLKSGTASVVCLLNNFYPREAKVQWKVDNALQSGNSQESVTEQDSKDSTYSLSSTLTLSKADYEKHKVYACEVTHQGLSSPVTKSFNRGEC
notes: 2-1 and 10.0 are separate lots from HEK293; also called 2-1; 10.0
B3: anti-CD20 human IgG1 L234A/L235A (LALA) (antibody)
heavy: not shown
light: QIVLSQSPAILSASPGEKVTMTCRASSSVSYIHWFQQKPGSSPKPWIYATSNLASGVPVRFSGSGSGTSYSLTISRVEAEDAATYYCQQWTSNPPTFGGGTKLEIKRTVAAPSVFIFPPSDEQLKSGTASVVCLLNNFYPREAKVQWKVDNALQSGNSQESVTEQDSKDSTYSLSSTLTLSKADYEKHKVYACEVTHQGLSSPVTKSFNRGEC
notes: 2-65 and 10.16 are separate lots; also called 2-65; 10.16
B4: anti-CD20 human IgG1 L234A/L235A/P329G (LALAPG reference) (antibody)
heavy: not shown
light: QIVLSQSPAILSASPGEKVTMTCRASSSVSYIHWFQQKPGSSPKPWIYATSNLASGVPVRFSGSGSGTSYSLTISRVEAEDAATYYCQQWTSNPPTFGGGTKLEIKRTVAAPSVFIFPPSDEQLKSGTASVVCLLNNFYPREAKVQWKVDNALQSGNSQESVTEQDSKDSTYSLSSTLTLSKADYEKHKVYACEVTHQGLSSPVTKSFNRGEC
notes: also called 2-66

Experiments:
[1] = molecular target: T1, CD3D/CD3E heterodimer (Sino Biologicals Cat. No. CT038-H2508H) (human, UniProt P04234 22-105; P07766 23-126); experiment: ELISA, antigen coated
T1 construct: bought; also called CD3 antigen; human CD3

[2] = molecular target: T2, Sheep Fc-CD52 fusion protein (Absolute Antibody Cat. No. PR00205) (human, UniProt P31358 25-36); experiment: ELISA, antigen coated, antibody 5 µg/mL
T2 construct: bought; also called CD52 antigen; human CD52; not shown: sheep Fc

[3] = molecular target: T1, CD3D/CD3E heterodimer (Sino Biologicals …); experiment: ELISA, antigen coated, antibody 5 µg/mL
[4] = molecular target: T3, human FcγRIIIA (F158) (human, UniProt P08637 17-208); experiment: SPR, FcγRIIIA captured
T3 construct: bought; F158 allele

[5] = molecular target: T4, Histidine-tagged recombinant human FcγRI (CD64) (human, UniProt P12314 16-288, limits assumed); experiment: SPR, His-FcγRI captured; Expt 2 Rep 1;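 also: antibody analyte injected at 100 µg/mL for 1 min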
T4 construct: bought

[6] = molecular target: T5, human FcRn (human, UniProt P55899 24-297; P61769 21-119); experiment: SPR pH 6.0, FcRn captured; Expt 2
T5 construct: bought

[7] = molecular target: T4, Histidine-tagged recombinant human …; experiment: SPR, His-FcγRI captured; CHO-produced; Expt 1 Rep 1;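 also: antibody analyte injected at 100 µg/mL for 1 min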
[8] = molecular target: T4, Histidine-tagged recombinant human …; experiment: SPR, His-FcγRI captured; Expt 3;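 also: biacore T200 SPR at 25 °C, Fc-variant antibodies at 100 µg/mL flowed 1 min over anti-His-captured FcγRI, signal taken just before injection end minus a buffer blank cycle; antibody analyte injected at 100 µg/mL for 1 min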
[9] = molecular target: T4, Histidine-tagged recombinant human …; experiment: SPR, His-FcγRI captured; CHO-produced; Expt 2 Rep 2;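 also: antibody analyte injected at 100 µg/mL for 1 min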
[10] = molecular target: T3, human FcγRIIIA (F158); experiment: SPR, receptor captured on anti-His chip
[11] = molecular target: T6, human FcγRIIB (human, UniProt P31994 43-217); experiment: SPR, receptor captured on anti-His chip
T6 construct: bought
T6 sequence (looked up): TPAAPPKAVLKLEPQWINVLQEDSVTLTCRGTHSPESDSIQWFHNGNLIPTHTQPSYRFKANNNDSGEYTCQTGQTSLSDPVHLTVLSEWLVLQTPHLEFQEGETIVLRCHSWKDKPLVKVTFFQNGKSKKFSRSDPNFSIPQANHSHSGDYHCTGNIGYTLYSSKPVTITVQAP

[12] = molecular target: T7, human FcγRIIA (R131) (human, UniProt P12318 34-218, limits assumed); experiment: SPR, receptor captured on anti-His chip
T7 construct: bought; R131 allele
T7 sequence (looked up): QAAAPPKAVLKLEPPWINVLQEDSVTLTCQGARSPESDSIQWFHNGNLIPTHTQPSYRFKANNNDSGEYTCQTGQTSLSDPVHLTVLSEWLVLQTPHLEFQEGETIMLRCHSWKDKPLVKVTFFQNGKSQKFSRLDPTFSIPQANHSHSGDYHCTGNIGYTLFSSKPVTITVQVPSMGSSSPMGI

[13] = molecular target: T8, human FcγRIIIB (NA2 allotype) (human, UniProt O75015 17-200, limits assumed); experiment: SPR, receptor captured on anti-His chip
T8 construct: bought; NA2 allotype

[14] = molecular target: T4, Histidine-tagged recombinant human …; experiment: SPR, His-FcγRI captured; Expt 1 Rep 1;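 also: antibody analyte injected at 100 µg/mL for 1 min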
[15] = molecular target: T9, cynomolgus monkey FcRn (cynomolgus monkey, UniProt Q8SPV9 24-297; Q8SPW0 21-119); experiment: SPR pH 6.0, FcRn captured
T9 construct: bought; also called cynomolgus FcRn

[16] = molecular target: T10, rabbit FcγRI (rabbit); experiment: SPR, receptor captured on anti-His chip
T10 construct: bought; captured on anti-histidine chip

[17] = molecular target: T4, Histidine-tagged recombinant human …; experiment: SPR, receptor captured on anti-His chip
[18] = molecular target: T11, rat FcγRI (rat, UniProt A0A0B4J2J0 16-285); experiment: SPR, receptor captured on anti-His chip
T11 construct: bought; captured on anti-histidine chip
T11 sequence: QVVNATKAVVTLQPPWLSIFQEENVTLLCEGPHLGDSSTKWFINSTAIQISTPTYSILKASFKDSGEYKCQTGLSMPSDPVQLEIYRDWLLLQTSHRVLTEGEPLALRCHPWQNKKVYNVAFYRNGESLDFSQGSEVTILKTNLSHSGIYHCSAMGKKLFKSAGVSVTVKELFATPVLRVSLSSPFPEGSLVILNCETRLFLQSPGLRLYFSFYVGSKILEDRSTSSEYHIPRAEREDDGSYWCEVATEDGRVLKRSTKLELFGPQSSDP

[19] = molecular target: T12, mouse FcγRI (mouse, UniProt P26151 25-297); experiment: SPR, receptor captured on anti-His chip
T12 construct: bought; captured on anti-histidine chip
T12 sequence (looked up): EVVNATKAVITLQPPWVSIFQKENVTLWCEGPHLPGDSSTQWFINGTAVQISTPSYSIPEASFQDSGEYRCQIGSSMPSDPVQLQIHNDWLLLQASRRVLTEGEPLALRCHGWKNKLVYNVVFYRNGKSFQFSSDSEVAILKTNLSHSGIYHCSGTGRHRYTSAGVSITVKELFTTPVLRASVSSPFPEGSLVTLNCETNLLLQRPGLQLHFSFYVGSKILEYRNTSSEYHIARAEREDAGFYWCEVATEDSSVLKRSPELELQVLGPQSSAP

[20] = molecular target: T4, Histidine-tagged recombinant human …; experiment: SPR, His-FcγRI captured; Expt 2;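 also: biacore T200 SPR at 25 °C, Fc-variant antibodies at 100 µg/mL flowed 1 min over anti-His-captured receptor, signal read near injection end minus third buffer blank; antibody analyte injected at 100 µg/mL for 1 min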
[21] = molecular target: T4, Histidine-tagged recombinant human …; experiment: SPR, His-FcγRI captured; Expt 1 Rep 2;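 also: antibody analyte injected at 100 µg/mL for 1 min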
[22] = molecular target: T4, Histidine-tagged recombinant human …; experiment: SPR, His-FcγRI captured; CHO-produced; Expt 2 Rep 1;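 also: antibody analyte injected at 100 µg/mL for 1 min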
[23] = molecular target: T5, human FcRn; experiment: SPR pH 6.0, FcRn captured; Expt 1
[24] = molecular target: T4, Histidine-tagged recombinant human …; experiment: SPR, His-FcγRI captured; CHO-produced; Expt 1 Rep 2;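 also: antibody analyte injected at 100 µg/mL for 1 min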
[25] = molecular target: T4, Histidine-tagged recombinant human …; experiment: SPR, His-FcγRI captured; mean;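 also: biacore T200 SPR at 25 °C, anti-His surface capturing FcγRI, Fc-variant antibodies injected at 100 µg/mL for 1 min, signal near injection end minus third buffer blank, three repeats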
[26] = molecular target: T4, Histidine-tagged recombinant human …; experiment: SPR, His-FcγRI captured; Expt 2 Rep 2;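 also: antibody analyte injected at 100 µg/mL for 1 min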

T3 sequence (P08637 17-208 limits assumed): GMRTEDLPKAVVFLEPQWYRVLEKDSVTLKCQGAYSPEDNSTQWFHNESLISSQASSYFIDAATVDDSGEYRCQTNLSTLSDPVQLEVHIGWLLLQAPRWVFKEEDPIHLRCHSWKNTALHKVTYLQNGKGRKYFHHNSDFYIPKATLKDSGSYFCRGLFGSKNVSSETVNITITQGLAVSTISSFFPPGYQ
T5 sequence (P55899 24-297 limits assumed, chain 1 of 2): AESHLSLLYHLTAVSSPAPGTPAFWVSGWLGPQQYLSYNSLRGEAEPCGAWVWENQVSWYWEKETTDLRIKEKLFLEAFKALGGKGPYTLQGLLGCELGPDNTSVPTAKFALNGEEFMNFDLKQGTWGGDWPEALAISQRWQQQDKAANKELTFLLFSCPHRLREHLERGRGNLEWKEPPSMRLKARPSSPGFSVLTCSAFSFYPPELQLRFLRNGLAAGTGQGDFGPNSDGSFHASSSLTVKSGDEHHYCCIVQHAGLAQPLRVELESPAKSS
T5 sequence (P61769 21-119 limits assumed, chain 2 of 2): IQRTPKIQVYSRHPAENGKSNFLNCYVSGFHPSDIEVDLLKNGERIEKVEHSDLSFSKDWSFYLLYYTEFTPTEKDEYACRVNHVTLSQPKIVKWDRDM

| Binder | Corrected response (RU) [5] [RU] | Corrected response (RU) [6] [RU] | Corrected response (RU) [7] [RU] | Corrected response (RU) [9] [RU] | Corrected response (RU) [10] [RU] | Corrected response (RU) [11] [RU] | Corrected response (RU) [12] [RU] | Corrected response (RU) [13] [RU] | Corrected response (RU) [14] [RU] | Corrected response (RU) [15] [RU] | Corrected response (RU) [16] [RU] | Corrected response (RU) [17] [RU] | Corrected response (RU) [18] [RU] | Corrected response (RU) [19] [RU] | Corrected response (RU) [21] [RU] | Corrected response (RU) [22] [RU] | Corrected response (RU) [23] [RU] | Corrected response (RU) [24] [RU] | Corrected response (RU) [26] [RU] | further results |
| --- | --- | --- | --- | --- | --- | --- | --- | --- | --- | --- | --- | --- | --- | --- | --- | --- | --- | --- | --- | --- |
| B1 |  |  |  |  |  |  |  |  |  |  |  |  |  |  |  |  |  |  |  | binding result [1]: no binding (tested: 5 µg/mL); Mean Absorbance [2]: 1.53 absorbance; Mean Absorbance [3]: 0.009 absorbance |
| B2 | 1460 | 650 | 2120 | 1390 | 889 | 175 | 345 | 501 | 2370 | 1440 | 2770 | 3020 | 2220 | 1790 | 2380 | 1350 | 647 | 2180 |  | Corrected response (RU) [4]: 588 RU; Corrected response (RU) [8]: 2600 RU; Corrected response (RU) [20]: 2570 RU; Corrected response (RU), Mean [25]: 2590 RU |
| B3 | 524 | 614 | 597 | 440 | 57.4 | 13.2 | 21.8 | 16 | 752 | 1390 | 141 | 832 | 2.3 | 6.3 | 654 | 452 | 612 | 577 | 478 |  |
| B4 | 62.4 | 557 |  |  | -0.4 | -0.6 | 0.9 | -1.6 | 53.4 | 1270 | 5.6 | 72.9 | 0.5 | -0.2 | 40.7 |  | 543 |  | 49.5 |  |
